The values below are quoted from earlier work in patent US20240285756A1, “METHOD AND COMPOSITION FOR INDUCING TOLERANCE” (ZELARION MALTA LIMITED, priority 2021, published 2024).

The data set concerns the target T1, CD2 (Homo sapiens, UniProt P06729).
T1 sequence (P06729 25-351): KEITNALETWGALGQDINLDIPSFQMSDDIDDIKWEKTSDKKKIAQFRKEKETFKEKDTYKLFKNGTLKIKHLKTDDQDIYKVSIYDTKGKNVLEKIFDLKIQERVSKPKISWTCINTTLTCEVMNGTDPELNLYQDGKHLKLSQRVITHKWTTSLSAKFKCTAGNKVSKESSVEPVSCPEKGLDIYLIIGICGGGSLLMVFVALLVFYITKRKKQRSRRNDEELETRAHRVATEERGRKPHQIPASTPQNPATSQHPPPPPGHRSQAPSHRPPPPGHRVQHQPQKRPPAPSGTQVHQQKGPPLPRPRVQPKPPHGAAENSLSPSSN
The conditions noted are these: literature value, Branco et al., Transplantation 1999; assay not further specified.

B1: siplizumab: humanized IgG1 kappa monoclonal antibody against human CD2; humanized version of rat antibody BTI-322 (antibody, V domains shown)
VH: QVQLVQSGAEVQRPGASVKVSCKASGYIFTEYYMYWVRQAPGQGLELVGRIDPEDGSIDYVEKFKKKVTLTADTSSSTAYMELSSLTSDDTAVYYCARGKFNYRFAYWGQGTLVTVSS
VL: DVVMTQSPPSLLVTLGQPASISCRSSQSLLHSSGNTYLNWLLQRPGQSPQPLIYLVSKLESGVPDRFSGSGSGTDFTLKISGVEAEDVGVYYCMQFTHYPYTFGQGTKLEIK
Usually IC50 stands for the concentration at which inhibition is half-maximal. In the case of B1, the IC50 was about 1 nM.
